Test: soluble fraction after stress (log2 fold change); higher = more stays soluble; pooled small domains, quantitative proteomics
Settings: stress: 50 degC
In short: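 Each library was heated to 50°C as a stress step. The libraries, made up of small protein domains, were pooled and analysed at high throughput by quantitative proteomics. The reported value is the base-two logarithm of the fold change in each protein's soluble amount after stress, taken as a measure of aggregation propensity. The higher the value, the more protein stays in solution.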

Sequence | soluble fraction (log2)
HMAAQLAHVPAVTGRPLAEAQRILADNRLNAQVTQQPVAEPKLDGVVIAQKITEGTRTMRGATVPLIVGKY | 0.128
HMNLTLMDALKAAGLPVDGINLSMVNKMMEEQMPIDKTSLNQMYQLVQDNKDINVTTLVELKRLG | -0.0277
HMKKGATVSGVIVEKTKKSLIIDLGAKTEGVVADKEFEFAIDFVKELKKGDEVKAIVISTDNDKGQVVLSL | -0.155
HMSVSATQMDAFVRQLRARLSSADGLDDAARLVRQDLEPFLGRFSDETERDFAAAIEQVRGSIRPVEI | 0.0229
HMGLNPSILVKLGNANIKTIDNLADLASDELKEILEDISITSKEADEIIMRARSSWFEEDDKKEDNI | 0.0789
HMKSVTVIFKESGNVVSSKKLSVVATAQYVDKSRITAPAGYRIATTDSKLKISENNTVTVEVK | 0.212
HMGTHVVQEGEYLDLIIEKTIPGSPIRKDLLRKAFVKLNPSAFGGRGNPNYIFARKKLKVPSVEDLKAVIF | -0.0708
HMLTKGDRQSIRDSIIYMVGNAPRTLDYIVAESRYSEEDVIEAVRSLLSSHILSIDDSDMISLTRK | -0.448
HMGSSLLSPKEREVLQLLAGNLSNKQIALAMGVSDETIKWHLRNLFGKLNAGGRKHLIDRARMLGLLAAA | -0.6
HMKALYNLDYEKPLSGSYYTETTARAAVPTDIRKLGLIITYKTDATTNITEQFVGSSISAWTTSGNWKSLG | -0.424
HMGQLSDREALTVLAREALVELPRAAGDYRNGRTAALQSLVGRVMRKTAGRGNPALLQEIFRSLL | -0.436
HMETMSGTVKWFNTQKGYGFITGDDGAEYFAHQTQIKMDGFRTLDAGDIVEFDVRSEEKGLAAVNIVP | -0.0597
HMGIPIEAYHESLHRHYIDLWELLDTGKETLIDAEGNEVDKIHLLNAIRFNVNGMLHELLKE | -1.76
HMSTSLIEFTIDRNNSIANKMIMDANIPEDILVVMIKRNGDVFVPNGSTKILPGDILVLSGNKLKY | -0.534
HMSGGIVRLAVKPWGEVFVDGASRGITPPLKQLTLDAGVHRIEIRNPAGPSWTKDVDVVAGQPTTVSHRF | 0.0289
HMKSVILQLHPETLRWIREEAQADMADASVIQLLNDWELGTKKPTLSQVQKLSHETHIPFGYFFLKEKPA | -0.45
HMDPPISNDARNAINAKLMKFSELHPNEMKKLVEAYKKEFKVSKISPITLARQGEFLSHAISKIDDT | 0.0248
HMQITSTDEIEKMIDELIAANPEQTKQYQNGNHKVAGWFVGQMMKASKGKANPQMVNNLLQKKL | 0.0271
HMASLASVAYETLRQALDNFQYVPGDRFSESEVGQQLGMSRTPVREALVRLQREGYISVLPKMGWVVNQ | -1.64
HMHPVEPDDPDQHILFQHLRGQDQVHIDALIRLSGWTADKVSSTLLFMELQGLVKQLPGMYYALE | -0.0844
HMGKPVTMELLIPYSQGSLVHRISEAGEVAKTEYQNDGTYMQVTFTPSAKDHALMQEVASYRI | 0.184
HMASDEVPGAGFKWREDVLLRVMEANGIDKSNRDDFVRHAVNFDDDDNNYLKKAEIEAAAAAWVESQSPA | -0.291
HMNMVSGHLQIKKGYYYVVLSYYDNRNKRHVKYVSTGLPEKGNKRKAEAALARVRSEFEPPQE | -3.55
HMNPGAYQVKAGEGLIGLSRRYNVPVDVLASVNNLNTTSSLRVGQTITIPTAAQVNRITQQAQ | 0.287
HMDRIISTPMPGRVVKIPVTEGEPVAKGATVITISAMKMESEYKSPIDGIVKKIHVSEGDNINANQPLIEI | -0.178

Sequence | soluble fraction (log2)
HMQDNPELVARIEKAAARGTSSMSDWERSFMGSLLDSAKKWGRLTAKQHEVFQRIEKKTDPAHQAAVS | 0.0476
HMGLWWTEAERELVKTTIEQLYKDTNIAEPVDSKNLRASIPALKAMRTGLSAENQARVDTLLGALQV | -0.157
HMPDGTATATASVNVRSGASTLSPVLGVLRVGESIGVTGQANGGWVPVNYNGRAGYVYAAYLSFD | -0.161
HMETKVIVPKVTGMNSKSAINYLSARGLKYKAVPADSGKSFHVVDQYPKSGTKVSPHSTVYLYS | 0.077
HMPNTLAGIERYLGSGMVKGIGPVYASRLVSAFGTAVFDVIEQTPERLREIDGIGEKRTRKITSGWADQ | -0.127
HMLEEIDYPEEQLQLLFAWSRDHVQSTPPGLPVVDDHVWHILVRGYGATDQRTEAFALLASYAGFP | -0.0919
HMTVPMKILILEDEQRNAMRLIRLLNDIDTTFIIEGPLTNIKEAVDFFQSGKTTDLILADIRL | -0.147
HMTKEEFLYELKKELSALDSAEATAYNLRYYSDYIDAEIAKGRSEQEVLDELGNPRWLVNSIKESG | 0.122
HMEFPLSPHQYSVLRLMAQGLSNKQIAERLFLSENTVKGYVQEVLRRLGARNRLEAVMIANRRGWL | -0.112
HMQVSEQVQRLLDALENDTLTTKELMDRLGLKHRPTFRKNYLLPSMKLGLVEMTIPDKPNSSRQKYRRRQ | -0.65
HMNSISDSELKALIKNNYLKFLKRIASDEEIEYHFNQIKNKTILLDELDSIFQNSQEYKDLVEHNNKIQN | -0.0724
HMKTNQINVSGLSKEKNFEVLESLDVYKFYNLFFLNKIKIDQLINSYNHIDNYSVFKKYPSSLIVKLSE | 0.0996
HMNDIVKIYTTHRIINIEGLAKNEPIMLYTINGTLIDKSVSSNGSAQLHVKGIGVYLVKWANNIVKVIVPN | -2.42
HMLTIEEYLTQLKKLMKDRDAATVRDALSDAEEHLRNAMAGEDPSRLDGIIEEYGSPEEIAAAYKIMEEHT | 0.0389
HMGDLVFDFVHGVHKAAEVEKELVMQALRFTHGNVSRAARLIGMQRSSLRYRIERYRLDAFVMEVAN | 0.3
HMAGIPIHMSQLKQIILLLSQGYPIKGIARETGVSRNTIKGYLQTLTSQDLNVTDALKLENIQLEYLLRSP | -1.65
HMREEIESVYKTLAVTEIPYIARGNSARLGSGIQTVYDFYRMEGMQVSKILGRNGSVLWLELHG | 0.126
HMAGAPANLAARLREQILQGAYHDGQRLPAERHLAAEHGVSRGTVREALRLLEQGALLTRKRGSGSYVTYP | -0.314
HMVPTVSVDRDDTLRFEGRPVDWDVLKRELGAVAGIDELKIYADAKVSALTVSKIMKSASEAGVLQFILVT | -0.188
HMIELTTDYKKRVVEALVSARENYSGSDSDFARKWSIDKTVYSRLKKGYQEGLLSVGKYIELGMELNVSSR | -1.34
HMTVSADQTTADAVIKLIDAIGTVSKNSGSAISAARSGYDALTDAQKKLVTNYNKLTQAEQVFSSLS | 0.129
HMINNINKLPETQFIKLFANIFENSQFIAVALYKKKGDGFSDFKDLINKIMDIFENTTKEKKLKILNA | -0.0982
HMGDGYTYYYDDTVLALGFTKIGNDYYIFNTFSGKMYKDATMWVNDNPYGIKGGMHYFDASGKMFV | 0.128
HMGGGVSSSLAGNVFKVLLPAGSVVEQGQAVIVLEAMKMETEVNAPKSGSVSSVFVNEGDTVEVGDLLFAI | -0.17
HMHEYSDIEHRILDAAREVFIRKGYDSATMGDIALLAGMSRTSVNYYFRNKERLFEAIFEEII | -2.08

Sequence | soluble fraction (log2)
HMTVSLTDVPFVPEILDRLERPELDVLLAILNGATNTFDLAAKTGRSRDELDEVLDRLTTLGLIER | -0.214
HMTTTSGLIKTIQTGRRKLGMDDETYRALLADVSGGKTSSKDLNAYQLKEVLRRMREAGFRS | 0.218
HMEPKIKQIVPNVVNYPVEDAKNVLVNSGLIVQIRGQGNIVYDQVPKGGAEVTRGTTVILDLNPPPGA | 0.42
HMNLDPIKRKSEILSLFESHKNVKFNEIFFEKVNKEFTVLTFLIILELVKDNIIDFSQTQEGLIEFFTR | -0.115
HMSVFMIIVLKQHAPQEFVDMLMSSIKAKGVQIDVSKGARKTILGLVGNTSVIDREQIAGYEYVDKVIRV | -0.85
HMFGEKEFYQWIGKTAGEKFSGLPAAVIKSLYKYWREYNLSEEDIMGFIRQTELLPKRTPLDVELFFEK | -0.456
HMQQDGSSSLGENMLNQELQARGVVPSEIPQEVWERVIQEAGKKSKREIYADIGLGRSLAAGFAQRLAA | 0.261
HMQTKNYVYFNNTENWSTVNVYVWSSKDSTYMSWPGKAMESIGNNTYRFELPNGAEYAIFNNGSAQTVD | -0.137
HMKYRPGDVVTLRVARMGEMGAFLDAGTGNTNDDILLHKMQQTEEIKAGQDVKVYLYLDPNRRLTASMKL | -0.108
HMGRLPMNIVRAIVEHLDRHASYSEINRATGASKGFISKVAAAVEAASLTPEKFLLLNDEDIQNRITPGR | -0.234
HMNAMKPVLTVSLGVHTDSLSRRLNEEGIIYRWQQAASEQLLLVDSESSSERIAELIHDWRLEQSSS | -0.0169
HMVGNEEALRAIVESIIAQNTTEVASFREGKEGLIGWFLGQVMRQTGGKADPKLARQILLELLKQ | -0.242
HMKLTALWTANPKISAPIYSEPSTQSKTLGRIYQGASVKVYSFDPEWAYINSSGVVGYVLRRHLE | -0.323
HMVYFAKNIRHLRRLRGMSQELLAAELDITRARLGAYEESRSEPPLHLLIKISEFFKLPVDIIVKNDLTKS | -3.66
HMASMHDGVAARLRAMVFERELAPGEFIDERRLAQQWQISRTPLREALKVLAAEGLVELVPRRGARVV | -0.298
HMTRVDALDQLAAIRFSSHIFAEDQDLRMVVVDGQRIGEGDIVRDEIRLEQITETGVIFEYQGERFPIDV | -1.42
HMEANPLTDREKEVLELVADGKNTKEIAQELSIKSGTVRNYISMILEKLEVKNRIEAITRSKEKGWF | 0.144
HMQRSVNYSELHEIKERVFDALYSSPMSMPDLLAWLKGDEEHTISVIRLMQDNGDIEMGEDGRLAVV | -0.275
HMGEVEVPDLVGIEAIQAKTLLFNSDFLIKEFYDYDPTQPIGVVIRQAPEAGTTQTIGDSVTITINRA | -0.116
HMINRPVYVPLYTNLDVKDAAEIAEKLEENNIAYKLEDQGETILVNPEQKYKVRLMLAQEGLPKG | -0.0681
HMGRKEIIVPNLLGKYAIEAGTILKNAGLLEGQAREENSDTYPAGQIMDQFPKANTPANENDKVDYVVSI | ≥ 0.62
HMQITDTEAIATTLDEIIAANPKEWERLKAGQEQLVKFFVGQVMRVTKGRANPQVVNDLLKERL | -0.075
HMEYTTEELDSLLKLYFQTHESINRNEFEQLTSYTRTTASRRLKTLVQAGKLQNIGLYRFPVYKPTEGNF | -2.49
HMALHDTLSYEEYLDLGLNGKADSAEKRELVAHALHLGRPNAKTLYKRLNMLQLNRKDVAALLEQ | 0.0249
HMRTMFGQRLRLARKRAGLSMQALADRVTPSVSAQAISKYEADQMMPSSSVLVGLGKALGVSLDFLVGGQ | -0.536

From the domain aggregation screens of Martell et al. (2025)
